Laboratory results: the supplement of paper PMC10065799, “High-throughput profiling of sequence recognition by tyrosine kinases and SH2 domains using bacterial peptide display” (eLife, 2023)

Molecular target: Fes (UniProt P07332)
Assay: phosphorylation enrichment, bacterial display (enrichment ratio); higher = better substrate or ligand; peptides without Tyr show the background
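Note: 11-residue human phosphosite peptides and single-mutation variants displayed on the E. coli surface, counted by deep sequencing, each peptide's frequency after selection divided by its frequency in the unselected input library; frequency after pTyr selection over input frequency; kinase dosed for 20-30% of maximal phosphorylation in three min.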

Sequence of Fes (P07332 whole entry, looked up): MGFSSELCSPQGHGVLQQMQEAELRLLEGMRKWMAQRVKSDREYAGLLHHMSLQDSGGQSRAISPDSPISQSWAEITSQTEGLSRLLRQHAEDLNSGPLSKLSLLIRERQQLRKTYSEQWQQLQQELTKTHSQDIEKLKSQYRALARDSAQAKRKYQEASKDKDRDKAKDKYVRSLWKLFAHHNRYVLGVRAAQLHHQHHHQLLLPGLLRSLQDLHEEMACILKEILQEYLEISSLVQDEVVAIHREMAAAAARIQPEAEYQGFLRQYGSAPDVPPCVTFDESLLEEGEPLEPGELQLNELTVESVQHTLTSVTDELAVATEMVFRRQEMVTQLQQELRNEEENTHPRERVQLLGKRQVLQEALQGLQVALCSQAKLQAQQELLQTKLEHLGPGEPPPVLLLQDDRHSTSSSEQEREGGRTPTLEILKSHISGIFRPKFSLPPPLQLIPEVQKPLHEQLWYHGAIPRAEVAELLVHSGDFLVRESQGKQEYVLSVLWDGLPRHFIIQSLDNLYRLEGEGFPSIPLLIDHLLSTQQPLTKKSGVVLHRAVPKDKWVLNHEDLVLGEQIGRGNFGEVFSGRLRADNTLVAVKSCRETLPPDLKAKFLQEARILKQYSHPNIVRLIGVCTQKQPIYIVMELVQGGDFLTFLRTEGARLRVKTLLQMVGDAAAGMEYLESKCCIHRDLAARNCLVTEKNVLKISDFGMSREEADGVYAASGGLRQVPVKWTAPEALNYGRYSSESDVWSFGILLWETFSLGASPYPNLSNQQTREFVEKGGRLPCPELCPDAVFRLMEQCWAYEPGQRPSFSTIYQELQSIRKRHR

Row | Sequence | phosphorylation enrichment
1 | MANFVYKAGPS [MAML2_Y515_M514V_YF] | 0.65
2 | NSNAAYEQSHF [LRIF1_Y714] | 0.616
3 | ELQDDYEDTME [SLC4A1_Y8_M11T] | 1.39
4 | GDPTEYFSTAI [IGSF22_Y501_YF] | 1.08
5 | QMQNPYSRHSS [MUC13_Y501] | 0.584
6 | RKMSSYAFFVQ [HMGB1_Y16_G11R] | 1.58
7 | DEDEEYEFMNR [ERBB3_Y1197_YF] | 1.17
8 | RRIHSYRCHLW [VHL_Y112_G114C] | 1.25
9 | FSQQTYYRVSN [ABCD1_Y180] | 0.756
10 | ANYTEYVATRW [CDKL5_Y171] | 0.96
11 | FVFSFYHAFSG [ACTN4_Y265_S262F_YF] | 1.1
12 | FADIAYNFRDG [PAH_Y166_H170D_YF] | 0.892
13 | SVTWTYSPALN [TP53_Y126_C124W] | 1.11
14 | AALSAYAPQRP [PTPRN2_Y249_A251P] | 1.08
15 | TDLAYYLVCKG [ASL_Y376_R379C] | 1.57
16 | CTTLHYNYMCN [TP53_Y234_I232L] | 1.01
17 | LSSETYVKSYT [F5_Y2149_M2148T] | 0.902

Row | Sequence | phosphorylation enrichment
18 | TNDMRYPMKSE [TGDS_Y302] | 0.672
19 | ACQGKYTPSGQ [ALDOA_Y343] | 0.742
20 | TFQFKYPEGSS [TGM4_Y440_E437Q_YF] | 0.943
21 | TVLGEYALPKG [CYP24A1_Y407] | 0.621
22 | WAMPAYNRSKL [WWOX_Y293_L291P] | 0.451
23 | DHLASYLDKVR [KRT10_Y160_R156H] | 0.677
24 | VKPRRYRPGTV [H3-5_Y41_H39R] | 0.542
25 | SIKDKYVMALF [KCNH2_Y611_T613M_YF] | 0.888
26 | EKEKEYMLPLD [DNM2_Y563_K562E] | 0.959
27 | HAVYVYDICHV [TWNK_Y508] | 1.31
28 | KRLKDYLTVLQ [USP25_Y425] | 0.664
29 | RLLVVYTWTQR [HBB_Y36_P37T] | 2.12
30 | IGEGTYGVLFK [CDK2_Y15_V18L_YF] | 0.997
31 | EAIAKYDFKAT [GRB2_Y7] | 0.827
32 | TGHKGYVAFLE [CARD9_Y76] | 0.666
33 | NREGVYTVSAP [TGFBI_Y537_F540S] | 0.705

Molecular target: FGFR1 (UniProt P11362)
Sequence (P11362 whole entry, looked up): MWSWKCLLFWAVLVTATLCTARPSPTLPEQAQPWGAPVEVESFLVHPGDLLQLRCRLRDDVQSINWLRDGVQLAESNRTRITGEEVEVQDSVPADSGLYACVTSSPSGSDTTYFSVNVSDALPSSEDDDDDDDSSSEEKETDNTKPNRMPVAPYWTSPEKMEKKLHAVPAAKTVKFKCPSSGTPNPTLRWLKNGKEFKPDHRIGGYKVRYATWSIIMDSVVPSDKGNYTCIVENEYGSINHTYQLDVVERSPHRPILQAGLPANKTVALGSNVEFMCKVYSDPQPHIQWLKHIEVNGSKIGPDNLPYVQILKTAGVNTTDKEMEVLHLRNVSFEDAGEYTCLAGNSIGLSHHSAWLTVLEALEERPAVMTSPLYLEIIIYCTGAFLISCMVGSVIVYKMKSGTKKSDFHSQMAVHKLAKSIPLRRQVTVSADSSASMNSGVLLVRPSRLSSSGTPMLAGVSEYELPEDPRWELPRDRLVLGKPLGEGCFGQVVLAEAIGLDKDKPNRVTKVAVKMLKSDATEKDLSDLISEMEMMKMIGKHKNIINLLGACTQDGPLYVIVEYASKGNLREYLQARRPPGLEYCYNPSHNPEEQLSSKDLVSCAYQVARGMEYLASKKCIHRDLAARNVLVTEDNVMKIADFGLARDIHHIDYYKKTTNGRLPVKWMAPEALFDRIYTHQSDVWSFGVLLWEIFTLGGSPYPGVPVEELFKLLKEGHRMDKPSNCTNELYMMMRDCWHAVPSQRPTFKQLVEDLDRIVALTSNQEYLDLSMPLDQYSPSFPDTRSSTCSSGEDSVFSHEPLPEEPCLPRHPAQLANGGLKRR
Assay: as above

Row | Sequence | phosphorylation enrichment
34 | MANFVYKAGPS [MAML2_Y515_M514V_YF] | 0.517
35 | NSNAAYEQSHF [LRIF1_Y714] | 0.48
36 | ELQDDYEDTME [SLC4A1_Y8_M11T] | 0.649
37 | GDPTEYFSTAI [IGSF22_Y501_YF] | 0.7
38 | QMQNPYSRHSS [MUC13_Y501] | 0.572
39 | RKMSSYAFFVQ [HMGB1_Y16_G11R] | 0.644
40 | DEDEEYEFMNR [ERBB3_Y1197_YF] | 0.724
41 | RRIHSYRCHLW [VHL_Y112_G114C] | 0.642
42 | FSQQTYYRVSN [ABCD1_Y180] | 6.2
43 | ANYTEYVATRW [CDKL5_Y171] | 2.97
44 | FVFSFYHAFSG [ACTN4_Y265_S262F_YF] | 0.492
45 | FADIAYNFRDG [PAH_Y166_H170D_YF] | 0.41
46 | SVTWTYSPALN [TP53_Y126_C124W] | 0.461
47 | AALSAYAPQRP [PTPRN2_Y249_A251P] | 0.605
48 | TDLAYYLVCKG [ASL_Y376_R379C] | 2.39
49 | CTTLHYNYMCN [TP53_Y234_I232L] | 0.811
50 | LSSETYVKSYT [F5_Y2149_M2148T] | 0.606

Row | Sequence | phosphorylation enrichment
51 | TNDMRYPMKSE [TGDS_Y302] | 0.486
52 | ACQGKYTPSGQ [ALDOA_Y343] | 0.406
53 | TFQFKYPEGSS [TGM4_Y440_E437Q_YF] | 0.521
54 | TVLGEYALPKG [CYP24A1_Y407] | 0.45
55 | WAMPAYNRSKL [WWOX_Y293_L291P] | 0.296
56 | DHLASYLDKVR [KRT10_Y160_R156H] | 0.46
57 | VKPRRYRPGTV [H3-5_Y41_H39R] | 0.53
58 | SIKDKYVMALF [KCNH2_Y611_T613M_YF] | 0.535
59 | EKEKEYMLPLD [DNM2_Y563_K562E] | 0.443
60 | HAVYVYDICHV [TWNK_Y508] | 1.59
61 | KRLKDYLTVLQ [USP25_Y425] | 0.506
62 | RLLVVYTWTQR [HBB_Y36_P37T] | 0.661
63 | IGEGTYGVLFK [CDK2_Y15_V18L_YF] | 0.38
64 | EAIAKYDFKAT [GRB2_Y7] | 0.587
65 | TGHKGYVAFLE [CARD9_Y76] | 0.414
66 | NREGVYTVSAP [TGFBI_Y537_F540S] | 0.462
